Reference: patent US5106621A, “Cysteine proteinases, production and use” (priority 1987, dated 1992)

B1: ananain, cysteine proteinase purified from pineapple (Ananas comosus) stem extract (Ananas comosus) (protein)
chain: VPQSIDWRDSGAVTSVKNQGRCGSCWAFASIATVESIYKIKRGNLVSLSEQQVLDCAVSYGCKGGWINKAYSFIISNKGVASAAIYPYKAAKGTCKTNGVPNSAYITRYTYVQRNNERNMMYAVSNQPIAAALDASGNFQHYKRGVFTGPCGTRLNHAIVIIGYGQDSSGKKFWIVRNSWGAGWGEGGYIRLARDVSSSFGLCGIAMDPLYPTLQS
notes: from tissue; host or cells: pineapple stem extract (from the earlier reading)
B2: bromelain (stem bromelain, EC 3.4.22.4), affinity purified from Sigma bromelain, pineapple (Ananas comosus) stem (Ananas comosus) (protein)
chain: AVPQSIDWRDYGAVTSVKNQNPCGACWAFAAIATVESIYKIKKGILEPLSEQQVLDCAKGYGCKGGWEFRAFEFIISNKGVASGAIYPYKAAKGTCKTDGVPNSAYITGYARVPRNNESSMMYAVSKQPITVAVDANANFQYYKSGVFNGPCGTSLNHAVTAIGYGQDSIIYPKKWGAKWGEAGYIRMARDVSSSSGICGIAIDPLYPTLEE
notes: purchased Sigma B 5144

Experiments:
Type in all cases: biochemical, Ananas comosus
[1] = substrate: Cc1cc(=O)oc2cc(NC(=O)[C@H](CCCNC(=N)N)NC(=O)[C@H](CCCNC(=N)N)NC(=O)OCc3ccccc3)ccc12; test: Kinetics of hydrolysis of fluorimetric substrates by ananain; conditions: other: ananain, 40° C., pH 6.8 buffer, 0.007% Brij 35, substrate 2 to 100 μM, spread = standard deviation
Protocol: (§1) used for this example was obtained by the method described in Example 1: the bromelain used was as in Example 4. For the determination of kinetic parameters Km (the Michaelis Constant) and kcat (the turnover number) of hydrolysis of Z-Phe-Arg-NHMec and Z-Arg-Arg-NHMec, measurements of the initial rates of reaction were made in 0.007% Brij 35 at 40° C. The enzymes (1×10^-11 M to 1×10^-9 M final concentration of activatable enzyme as determined by active-site titration) were activated in 0.75 ml of 4-fold concentrated buffer in a fluorimetric cuvette at 40° C. for 2 min, to which pre-warmed 0.01% Brij was added, followed by substrate to a final volume of 3.0 ml. Continuous rate assays were carried out using a temperature-controlled cell, with stirring, in the fluorimeter ([…]), standardized so that 1000 arbitrary units corresponded to 0.2 μM coumarin (i.e. at most, 10% substrate hydrolysis). Substrate concentration(s) used were in the range 2 to 100 μM. Visual inspection of the data was performed using the direct linear plot and plots of s/v against s (v being the rate of product formation). (Henderson, P. J. F., Techniques in Protein and Enzyme Biochemistry, B113, 1-43, 1978). Values of Km and Vmax (the maximum rate of product formation at a given enzyme concentration) were calculated by the method of Wilkinson, G. N., Biochem. J., 80, 324-332, 1961.

[2] = substrate: Cc1cc(=O)oc2cc(NC(=O)[C@H](CCCNC(=N)N)NC(=O)[C@H](Cc3ccccc3)NC(=O)OCc3ccccc3)ccc12; test: as above; conditions: other: ananain, 40° C., pH 6.8 buffer, 0.007% Brij 35, substrate 2 to 100 μM, spread = standard deviation
Protocol: as §1

[3] = substrate: Cc1cc(=O)oc2cc(NC(=O)[C@H](CCCNC(=N)N)NC(=O)[C@H](CCCNC(=N)N)NC(=O)OCc3ccccc3)ccc12; test: Kinetics of hydrolysis of fluorimetric substrates by bromelain; conditions: other: bromelain, 40° C., pH 6.8 buffer, 0.007% Brij 35, substrate 2 to 100 μM, spread = standard deviation
Protocol: (§2) The enzymes used were affinity purified ananain and comosain (Examples 1 and 2) and bromelain, which was obtained from chromatography-purified Sigma bromelain (catalogue number B 5144) by affinity chromatography on a column of Sepharose-aminohexanoyl-Gly-Phe-Gly-semicarbazide, followed by dialysis into 1 mM EDTA and lyophilisation. The proteinases were standardised by E-64 titration as described in Example 8.
(§3) Ananain used for this example was obtained by the method described in Example 1: the bromelain used was as in Example 4.
as §1, with “For” for “used for this example was obtained by the method described in Example 1: the bromelain used was as in Example 4. For”

[4] = substrate: Cc1cc(=O)oc2cc(NC(=O)[C@H](CCCNC(=N)N)NC(=O)[C@H](Cc3ccccc3)NC(=O)OCc3ccccc3)ccc12; test: as above; conditions: other: bromelain, 40° C., pH 6.8 buffer, 0.007% Brij 35, substrate 2 to 100 μM, spread = standard deviation
Protocol: as §2, §3
as §1, with “For” for “used for this example was obtained by the method described in Example 1: the bromelain used was as in Example 4. For”

Protein | Km [1] | kcat [1] | kcat/Km [1] | Km [2] | kcat [2] | kcat/Km [2] | Km [3] | kcat [3] | kcat/Km [3] | Km [4] | kcat [4] | kcat/Km [4]
B1 | 44.5 (±9.0) μM | 0.323 (±0.03) s^-1 | 0.007 (±0.002) s^-1 · μM^-1 | 48.3 (±4.8) μM | 7.07 (±0.3) s^-1 | 0.146 (±0.02) s^-1 · μM^-1 | – | – | – | – | – | –
B2 | – | – | – | – | – | – | 15.4 (±2.8) μM | 27.3 (±1.9) s^-1 | 1.77 (±0.37) s^-1 · μM^-1 | 83.1 (±14.1) μM | 0.14 (±0.01) s^-1 | 0.0016 (±0.0003) s^-1 · μM^-1
